Experimental data reported in the RNAGym collection of RNA variant scans (doi:10.1021/acssynbio.7b00057).

B1: Pistol ribozyme (parent)
chain: GGGUCGUUGUUCCAUAAUCGCGUGGAUAUGGCACGCAAGUUUCUACCGGGCACCGUAAAUGUCCGACUGGAGCCGUUCGGGCGGCUAUAAACAGACCUCAGGCCCGAAGCGUGGCGGCACCUGCCGCCGGUGGUAAAAAAGAUCGGAAGAGCACACGUCU

Variants of: B1
Assay: aptazyme ON/OFF ratio, guanine; higher = stronger switching; co-transcriptional cleavage with and without guanine

Row | Variant | aptazyme ON/OFF ratio
1 | U8A G9U U10C U11C C12A C13G | 1.05
2 | U8A G9U U10C U11C C12A C13U | 1.04
3 | U8A G9U U10C U11C C12A C13A | 1.01
4 | U8A G9U U10C U11A C12A C13A | 1.14
5 | U8A G9U U10C U11A C12A C13U | 1.17
6 | U8A G9U U10C U11A C12A C13G | 1.12
7 | U8A G9U U10A C12A C13U | 1.36
8 | U8A G9U U10A C12A C13A | 1.22
9 | U8A G9U U10A C12A C13G | 1.12
10 | U8A G9C U10G U11C | 1.05
11 | U8A G9C U10G U11G | 1.07
12 | U8A G9C U10G U11A | 1.03
13 | U8A G9U U10A C12U C13U | 1.13
14 | U8A G9U U10A C12U C13G | 1.18
15 | U8A G9U U10A C12U C13A | 1.25
16 | U8A G9U U10A U11G C13G | 1.08
17 | U8A G9U U10A U11G C13A | 1.23
18 | U8A G9U U10A U11G C13U | 1.25
19 | U8A G9C U11A C12G C13G | 1.17
20 | U8A G9C U11A C12G C13A | 1.12
21 | U8A G9C U11A C12G C13U | 1.14
22 | U8A G9U U10G C12G C13G | 1.15
23 | U8A G9U U10G C12G C13U | 1.28
24 | U8A G9U U10G C12G C13A | 1.29

Row | Variant | aptazyme ON/OFF ratio
25 | U8A G9U U10C C13U | 1.15
26 | U8A G9U U10C C13A | 1.08
27 | U8A G9U U10C C13G | 1.04
28 | U8A G9C U10C U11C C12G C13G | 1.05
29 | U8A G9C U10C U11C C12G C13A | 1.01
30 | U8A G9C U10C U11C C12G C13U | 1.04
31 | U8A G9C U11G C12G C13U | 1.07
32 | U8A G9C U11G C12G C13G | 1.14
33 | U8A G9C U11G C12G C13A | 1.18
34 | U8A G9U U10A U11A C12G C13A | 1.27
35 | U8A G9U U10A U11A C12G C13U | 1.38
36 | U8A G9U U10A U11A C12G C13G | 1.32
37 | U8A G9C U10G C12U C13A | 1.21
38 | U8A G9C U10G C12U C13G | 1.11
39 | U8A G9C U10G C12U C13U | 1.22
40 | U8A G9C U10C C12U C13U | 1.03
41 | U8A G9C U10C C12U C13A | 1.04
42 | U8A G9C U10C C12U C13G | 1.03
43 | U8A G9C U11A C12A | 1.19
44 | U8A G9C U11A C12U | 1.22
45 | U8A G9C U11A C12G | 1.22
46 | U8A G9U U10G C12G | 1.13
47 | U8A G9U U10G C12U | 1.13
48 | U8A G9U U10G C12A | 1.18

Row | Variant | aptazyme ON/OFF ratio
49 | U8A G9U U10A U11A C13G | 1.07
50 | U8A G9U U10A U11A C13A | 1.29
51 | U8A G9U U10A U11A C13U | 1.28
52 | U8A G9C U10G U11A C12G C13A | 1.26
53 | U8A G9C U10G U11A C12G C13G | 1.52
54 | U8A G9C U10G U11A C12G C13U | 1.15
55 | U8A G9C U10C U11G C12G C13G | 1.12
56 | U8A G9C U10C U11G C12G C13U | 1.09
57 | U8A G9C U10C U11G C12G C13A | 1.14
58 | U8A G9U C13G | 1.09
59 | U8A G9U C13U | 1.4
60 | U8A G9U C13A | 1.24
61 | U8A G9U U10C C12U C13U | 1.18
62 | U8A G9U U10C C12U C13G | 1.07
63 | U8A G9U U10C C12U C13A | 1.08
64 | U8A G9C U10G C12U | 1.28
65 | U8A G9C U10G C12G | 1.17
66 | U8A G9C U10G C12A | 1.18
67 | U8A G9C U10G U11G C12A | 1.14
68 | U8A G9C U10G U11G C12G | 1.24
69 | U8A G9C U10G U11G C12U | 1.23
70 | U8A G9U U10A U11C C12G C13U | 1.34
71 | U8A G9U U10A U11C C12G C13G | 1.12
72 | U8A G9U U10A U11C C12G C13A | 1.14

Row | Variant | aptazyme ON/OFF ratio
73 | U8A G9U | 2.15
74 | U8A G9C U10C U11G C12A C13U | 1.02
75 | U8A G9C U10C U11G C12A C13A | 1.06
76 | U8A G9C U10C U11G C12A C13G | 1.08
77 | U8A G9U U10C U11A | 1.34
78 | U8A G9U U10C U11G | 1.34
79 | U8A G9U U10C U11C | 1.04
80 | U8A G9C U11G C12A | 1.06
81 | U8A G9C U11G C12G | 1.16
82 | U8A G9C U11G C12U | 1.45
83 | U8A G9U U10C C12A | 1.04
84 | U8A G9U U10C C12G | 1.04
85 | U8A G9U U10C C12U | 1.08
86 | U8A G9C U10C U11C C12A C13U | 1.03
87 | U8A G9C U10C U11C C12A C13G | 1.01
88 | U8A G9C U10C U11C C12A C13A | 1.04
89 | U8A G9U U10A U11C C13A | 1.04
90 | U8A G9U U10A U11C C13U | 1.02
91 | U8A G9U U10A U11C C13G | 1.08
92 | U8A G9C U11A C12U C13G | 1.15
93 | U8A G9C U11A C12U C13U | 1.15
94 | U8A G9C U11A C12U C13A | 1.14
95 | U8A G9C U11A | 1.21
96 | U8A G9C U11G | 1.25

Row | Variant | aptazyme ON/OFF ratio
97 | U8A G9C U11C | 1.03
98 | U8A G9U U10A U11G C12U | 1.37
99 | U8A G9U U10A U11G C12A | 1.07
100 | U8A G9U U10A U11G C12G | 1.24
101 | U8A G9C U10C U11A C12G C13G | 1.12
102 | U8A G9C U10C U11A C12G C13U | 1.16
103 | U8A G9C U10C U11A C12G C13A | 1.06
104 | U8A G9C U10G U11A C13A | 1.03
105 | U8A G9C U10G U11A C13G | 1.06
106 | U8A G9C U10G U11A C13U | 1.02
107 | U8A G9C U10G C12G C13A | 1.23
108 | U8A G9C U10G C12G C13U | 1.2
109 | U8A G9C U10G C12G C13G | 1.15
110 | U8A G9U U10A U11A | 1.67
111 | U8A G9U U10A U11C | 1.03
112 | U8A G9U U10A U11G | 1.42
113 | U8A G9C U11G C13U | 1.17
114 | U8A G9C U11G C13A | 1.15
115 | U8A G9C U11G C13G | 1.04
116 | U8A G9C U11C C13U | 1.06
117 | U8A G9C U11C C13G | 1.04
118 | U8A G9C U11C C13A | 1.06
119 | U8A G9C U11G C12U C13G | 1.27
120 | U8A G9C U11G C12U C13A | 1.31

Row | Variant | aptazyme ON/OFF ratio
121 | U8A G9C U11G C12U C13U | 1.08
122 | U8A G9U U10C U11G C12A | 1.05
123 | U8A G9U U10C U11G C12G | 1.09
124 | U8A G9U U10C U11G C12U | 1.18
125 | U8A G9U U10C U11A C12G C13G | 1.12
126 | U8A G9U U10C U11A C12G C13A | 1.15
127 | U8A G9U U10C U11A C12G C13U | 1.14
128 | U8A G9C U10G C12A C13A | 1.19
129 | U8A G9C U10G C12A C13G | 1.03
130 | U8A G9C U10G C12A C13U | 1.37
131 | U8A G9U C12U C13U | 1.36
132 | U8A G9U C12U C13G | 1.25
133 | U8A G9U C12U C13A | 1.36
134 | U8A G9U U10A U11G C12A C13G | 1.19
135 | U8A G9U U10A U11G C12A C13A | 1.01
136 | U8A G9U U10A U11G C12A C13U | 1.21
137 | U8A G9U U10A | 1.31
138 | U8A G9U U10G | 1.61
139 | U8A G9U U10C | 1.88
140 | U8A G9U U10C U11G C13U | 1.14
141 | U8A G9U U10C U11G C13G | 1.05
142 | U8A G9U U10C U11G C13A | 1.12
143 | U8A G9U U10A C13G | 1.1
144 | U8A G9U U10A C13U | 1.2

Row | Variant | aptazyme ON/OFF ratio
145 | U8A G9U U10A C13A | 1.26
146 | U8A G9U U10C C12G C13G | 1.18
147 | U8A G9U U10C C12G C13U | 1.25
148 | U8A G9U U10C C12G C13A | 1.15
149 | U8A G9U U10C C12A C13A | 1.09
150 | U8A G9U U10C C12A C13U | 1.05
151 | U8A G9U U10C C12A C13G | 1.06
152 | U8A G9U U10G C12U C13G | 1.27
153 | U8A G9U U10G C12U C13A | 1.31
154 | U8A G9U U10G C12U C13U | 1.45
155 | U8A G9C U11C C12A C13G | 1.05
156 | U8A G9C U11C C12A C13U | 1.06
157 | U8A G9C U11C C12A C13A | 1.07
158 | U8A G9C U11G C12A C13A | 1.1
159 | U8A G9C U11G C12A C13U | 1.2
160 | U8A G9C U11G C12A C13G | 1.25
161 | U8A G9U U10A U11A C12U C13G | 1.36
162 | U8A G9U U10A U11A C12U C13A | 1.21
163 | U8A G9U U10A U11A C12U C13U | 1.53
164 | U8A G9C U10G U11G C13U | 1.23
165 | U8A G9C U10G U11G C13G | 1.16
166 | U8A G9C U10G U11G C13A | 1.23
167 | U8A G9C U10G U11A C12U | 1.06
